# Measured values taken from IntAct's records for PubMed 31515488.
# B1: Cyclin-dependent kinase 4 inhibitor D (Homo sapiens), P55273 (parent)
# chain: MLLEEVRAGDRLSGAAARGDVQEVRRLLHRELVHPDALNRFGKTALQVMMFGSTAIALELLKQGASPNVQDTSGTSPVHDAARTGFLDTLKVLVEHGADVNVPDGTGALPIHLAVQEGHTAVVSFLAAESDLHRRDARGLTPLELALQRGAQDLVDILQGHMVAPL
# B2: ADP-ribosylation factor-like protein 2-binding protein (Homo sapiens), Q9Y2Y0 (parent)
# chain: MDALEGESFALSFSSASDAEFDAVVGYLEDIIMDDEFQLLQRNFMDKYYLEFEDTEENKLIYTPIFNEYISLVEKYIEEQLLQRIPEFNMAAFTTTLQHHKDEVAGDIFDMLLTFTDFLAFKEMFLDYRAEKEGRGLDLSSGLVVTSLCKSSSLPASQNNLRH
# B3: Cyclic AMP-dependent transcription factor ATF-4 (Homo sapiens), P18848 (parent)
# chain: MTEMSFLSSEVLVGDLMSPFDQSGLGAEESLGLLDDYLEVAKHFKPHGFSSDKAKAGSSEWLAVDGLVSPSNNSKEDAFSGTDWMLEKMDLKEFDLDALLGIDDLETMPDDLLTTLDDTCDLFAPLVQETNKQPPQTVNPIGHLPESLTKPDQVAPFTFLQPLPLSPGVLSSTPDHSFSLELGSEVDITEGDRKPDYTAYVAMIPQCIKEEDTPSDNDSGICMSPESYLGSPQHSPSTRGSPNRSLPSPGVLCGSARPKPYDPPGEKMVAAKVKGEKLDKKLKKMEQNKTAATRYRQKKRAEQEALTGECKELEKKNEALKERADSLAKEIQYLKDLIEEVRKARGKKRVP
# B4: Calcium-binding and coiled-coil domain-containing protein 2 (Homo sapiens), Q13137 (parent)
# chain: MEETIKDPPTSAVLLDHCHFSQVIFNSVEKFYIPGGDVTCHYTFTQHFIPRRKDWIGIFRVGWKTTREYYTFMWVTLPIDLNNKSAKQQEVQFKAYYLPKDDEYYQFCYVDEDGVVRGASIPFQFRPENEEDILVVTTQGEVEEIEQHNKELCKENQELKDSCISLQKQNSDMQAELQKKQEELETLQSINKKLELKVKEQKDYWETELLQLKEQNQKMSSENEKMGIRVDQLQAQLSTQEKEMEKLVQGDQDKTEQLEQLKKENDHLFLSLTEQRKDQKKLEQTVEQMKQNETTAMKKQQELMDENFDLSKRLSENEIICNALQRQKERLEGENDLLKRENSRLLSYMGLDFNSLPYQVPTSDEGGARQNPGLAYGNPYSGIQESSSPSPLSIKKCPICKADDICDHTLEQQQMQPLCFNCPICDKIFPATEKQIFEDHVFCHSL
# B5: Spindle and kinetochore-associated protein 3 (Homo sapiens), Q8IX90 (parent)
# chain: MDPIRSFCGKLRSLASTLDCETARLQRALDGEESDFEDYPMRILYDLHSEVQTLKDDVNILLDKARLENQEGIDFIKATKVLMEKNSMDIMKIREYFQKYGYSPRVKKNSVHEQEAINSDPELSNCENFQKTDVKDDLSDPPVASSCISEKSPRSPQLSDFGLERYIVSQVLPNPPQAVNNYKEEPVIVTPPTKQSLVKVLKTPKCALKMDDFECVTPKLEHFGISEYTMCLNEDYTMGLKNARNNKSEEAIDTESRLNDNVFATPSPIIQQLEKSDAEYTNSPLVPTFCTPGLKIPSTKNSIALVSTNYPLSKTNSSSNDLEVEDRTSLVLNSDTCFENLTDPSSPTISSYENLLRTPTPPEVTKIPEDILQLLSKYNSNLATPIAIKAVPPSKRFLKHGQNIRDVSNKEN
# B6: Ras and Rab interactor 1 (Homo sapiens), Q13671 (parent)
# chain: MESPGESGAGSPGAPSPSSFTTGHLAREKPAQDPLYDVPNASGGQAGGPQRPGRVVSLRERLLLTRPVWLQLQANAAAALHMLRTEPPGTFLVRKSNTRQCQALCMRLPEASGPSFVSSHYILESPGGVSLEGSELMFPDLVQLICAYCHTRDILLLPLQLPRAIHHAATHKELEAISHLGIEFWSSSLNIKAQRGPAGGPVLPQLKARSPQELDQGTGAALCFFNPLFPGDLGPTKREKFKRSFKVRVSTETSSPLSPPAVPPPPVPVLPGAVPSQTERLPPCQLLRRESSVGYRVPAGSGPSLPPMPSLQEVDCGSPSSSEEEGVPGSRGSPATSPHLGRRRPLLRSMSAAFCSLLAPERQVGRAAAALMQDRHTAAGQLVQDLLTQVRAGPEPQELQGIRQALSRARAMLSAELGPEKLLSPKRLEHVLEKSLHCSVLKPLRPILAARLRRRLAADGSLGRLAEGLRLARAQGPGAFGSHLSLPSPVELEQVRQKLLQLLRTYSPSAQVKRLLQACKLLYMALRTQEGEGAGADEFLPLLSLVLAHCDLPELLLEAEYMSELLEPSLLTGEGGYYLTSLSASLALLSGLGQAHTLPLSPVQELRRSLSLWEQRRLPATHCFQHLLRVAYQDPSSGCTSKTLAVPPEASIATLNQLCATKFRVTQPNTFGLFLYKEQGYHRLPPGALAHRLPTTGYLVYRRAEWPETQGAVTEEEGSGQSEARSRGEEQGCQGDGDAGVKASPRDIREQSETTAEGGQGQAQEGPAQPGEPEAEGSRAAEE
# partner: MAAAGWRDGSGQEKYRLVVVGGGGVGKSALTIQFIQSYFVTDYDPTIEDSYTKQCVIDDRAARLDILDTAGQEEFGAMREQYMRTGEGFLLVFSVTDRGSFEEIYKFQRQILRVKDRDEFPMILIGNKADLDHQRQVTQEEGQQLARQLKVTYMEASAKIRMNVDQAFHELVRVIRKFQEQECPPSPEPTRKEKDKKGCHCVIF
# B7: Placental protein 13-like (Homo sapiens), Q8TCE9 (parent)
# chain: MSSLPVPYTLPVSLPVGSCVIITGTPILTFVKDPQLEVNFYTGMDEDSDIAFQFRLHFGHPAIMNSCVFGIWRYEEKCYYLPFEDGKPFELCIYVRHKEYKVMVNGQRIYNFAHRFPPASVKMLQVFRDISLTRVLISD
# B8: PiggyBac transposable element-derived protein 1 (Homo sapiens), Q96JS3 (parent)
# chain: MYEALPGPAPENEDGLVKVKEEDPTWEQVCNSQEGSSHTQEICRLRFRHFCYQEAHGPQEALAQLRELCHQWLRPEMHTKEQIMELLVLEQFLTILPKELQPCVKTYPLESGEEAVTVLENLETGSGDTGQQASVYIQGQDMHPMVAEYQGVSLECQSLQLLPGITTLKCEPPQRPQGNPQEVSGPVPHGSAHLQEKNPRDKAVVPVFNPVRSQTLVKTEEETAQAVAAEKWSHLSLTRRNLCGNSAQETVMSLSPMTEEIVTKDRLFKAKQETSEEMEQSGEASGKPNRECAPQIPCSTPIATERTVAHLNTLKDRHPGDLWARMHISSLEYAAGDITRKGRKKDKARVSELLQGLSFSGDSDVEKDNEPEIQPAQKKLKVSCFPEKSWTKRDIKPNFPSWSALDSGLLNLKSEKLNPVELFELFFDDETFNLIVNETNNYASQKNVSLEVTVQEMRCVFGVLLLSGFMRHPRREMYWEVSDTDQNLVRDAIRRDRFELIFSNLHFADNGHLDQKDKFTKLRPLIKQMNKNFLLYAPLEEYYCFDKSMCECFDSDQFLNGKPIRIGYKIWCGTTTQGYLVWFEPYQEESTMKVDEDPDLGLGGNLVMNFADVLLERGQYPYHLCFDSFFTSVKLLSALKKKGVRATGTIRENRTEKCPLMNVEHMKKMKRGYFDFRIEENNEIILCRWYGDGIISLCSNAVGIEPVNEVSCCDADNEEIPQISQPSIVKVYDECKEGVAKMDQIISKYRVRIRSKKWYSILVSYMIDVAMNNAWQLHRACNPGASLDPLDFRRFVAHFYLEHNAHLSD
# Variants of: B1
# Details: with cdk6_human CDK6, Q00534
row,effect of a mutation on the interaction,Variant
1,with no effect,P67L
2,with no effect,V94M

# Variants of: B2
# Details: with arl2_human ARL2, P36404
row,effect of a mutation on the interaction,Variant
1,disrupting interaction strength,M45R
2,disrupting interaction strength,E87K

# Variants of: B3
# Details: with ldoc1_human LDOC1, O95751
row,effect of a mutation on the interaction,Variant
1,with no effect,T137S
2,disrupting interaction strength,E322D
3,with no effect,P258A
4,with no effect,A324V

# Variants of: B3
# Details: with fbw1a_human BTRC
row,effect of a mutation on the interaction,Variant
1,with no effect,T137S
2,disrupting interaction strength,E322D
3,with no effect,P258A
4,with no effect,A324V

# Variants of: B3
# Details: with tthy_human TTR
row,effect of a mutation on the interaction,Variant
1,with no effect,T137S

# Variants of: B3
# Details: with cc106_human CCDC106, Q9BWC9
row,effect of a mutation on the interaction,Variant
1,disrupting interaction strength,E322D
2,with no effect,P258A
3,with no effect,A324V

# Variants of: B3
# Details: with cc106_human CCDC106, Q9BWC9
# Remark: another data set of the same source
row,effect of a mutation on the interaction,Variant
1,disrupting interaction strength,A324V

# Variants of: B4
# Details: with leg8_human LGALS8, O00214
row,Variant,effect of a mutation on the interaction
1,T255A,with no effect
2,E222K,with no effect

# Further lines, results first:
row,effect of a mutation on the interaction,Variant
1,with no effect,T273A
2,with no effect,P389A

# Variants of: B4
# Details: with tcl1a_human TCL1A
row,effect of a mutation on the interaction,Variant
1,with no effect,T273A
2,with no effect,P389A
3,with no effect,E222K

# Variants of: B4
# Details: with dus12_human DUSP12, Q9UNI6
row,effect of a mutation on the interaction,Variant
1,with no effect,T273A
2,with no effect,P389A

# Variants of: B4
# Details: with smrd1_human SMARCD1, Q96GM5
row,effect of a mutation on the interaction,Variant
1,with no effect,E222K

# Variants of: B4
# Details: with tekt3_human TEKT3, Q9BXF9
row,effect of a mutation on the interaction,Variant
1,with no effect,V248A

# Variants of: B5
# Details: with ska1_human SKA1, Q96BD8
row,Variant,effect of a mutation on the interaction
1,A28V,with no effect
2,T254A,with no effect
3,V187I,with no effect

# The next lines start with the values.
row,effect of a mutation on the interaction,Variant
1,with no effect,R396M
2,with no effect,D335E
3,with no effect,T348M

# Variants of: B6
# Details: with rras2_human RRAS2, P62070
row,effect of a mutation on the interaction,Variant
1,with no effect,R238Q

# Variants of: B7
# Details: with trim1_human MID2, Q9UJV3
row,effect of a mutation on the interaction,Variant
1,disrupting interaction strength,M123T

# Variants of: B7
# Details: with ikzf3_human IKZF3, Q9UKT9
row,effect of a mutation on the interaction,Variant
1,disrupting interaction strength,M123T

# Variants of: B7
# Details: with itf2_human TCF4, P15884
row,effect of a mutation on the interaction,Variant
1,disrupting interaction strength,M123T

# Variants of: B7
# Details: with gfap_human GFAP
row,effect of a mutation on the interaction,Variant
1,disrupting interaction strength,M123T

# Variants of: B8
# Details: with traf2_human TRAF2, Q12933
row,effect of a mutation on the interaction,Variant
1,disrupting interaction strength,Q248E
2,with no effect,P256L
3,disrupting interaction strength,G244E

# Variants of: B8
# Details: with zsc22_human ZSCAN22, P10073
row,effect of a mutation on the interaction,Variant
1,with no effect,Q248E
2,disrupting interaction strength,P256L
3,with no effect,G244E

# Variants of: B8
# Details: with zn446_human ZNF446, Q9NWS9
row,effect of a mutation on the interaction,Variant
1,with no effect,Q248E
2,disrupting interaction strength,P256L
3,with no effect,G244E
